Laboratory results published in patent US20250092109A1 (XILIO DEVELOPMENT, published 2025).
Substitutions are numbered along the chain they refer to. Names and notes keep the numbering of the source.

T1: CD25 on CD25+ cells (UniProt P01589 22-272, limits assumed)
T1 sequence (looked up): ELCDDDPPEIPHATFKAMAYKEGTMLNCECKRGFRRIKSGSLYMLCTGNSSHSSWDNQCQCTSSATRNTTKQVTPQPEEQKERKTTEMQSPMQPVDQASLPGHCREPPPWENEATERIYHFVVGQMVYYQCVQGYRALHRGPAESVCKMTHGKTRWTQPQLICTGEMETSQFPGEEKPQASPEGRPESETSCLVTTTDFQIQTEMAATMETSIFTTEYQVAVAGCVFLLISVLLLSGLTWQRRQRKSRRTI

B1: VHH1 (VHH)
VHH: EVQLVESGGGLVQPGGSLRLSCAASGSIFSINVMGWYRQAPGKQRELVAAISSGGSTNYADSVKGRFTISRDNAKNTVYLQMNSLKPEDTAVYYCMYASSWYEDETDYWGQGTQVTVSS
notes: In the functional rows it stood as the masking moiety of constructs C7, C2, C4 and C6, fused to an Fc chain; also called Parental; parental anti-IL-2
B2: VHH46 (VHH)
VHH: B1 VHH
B3: VHH9 (VHH)
VHH: B1 VHH with Q44G, M96A, W101F
notes: In the functional rows it stood as the masking moiety of construct C12; also called Q44G, M96A, W101F
B4: VHH36 (VHH)
VHH: B1 VHH with I31S, Q44G, R45L, M96A, W101Y
notes: In the functional rows it stood as the masking moiety of construct C11; also called I31S, Q44G, R45L, M96A, W101Y
B5: VHH31 (VHH)
VHH: B1 VHH with I31S, Q44G, R45L, M96A, W101F
notes: also called I31S, Q44G, R45L, M96A, W101F
B6: VHH12 (VHH)
VHH: B1 VHH with Q44G, M96A, W101Y
notes: In the functional rows it stood as the masking moiety of constructs C13 and C1; also called Q44G, M96A, W101Y
B7: VHH40 (VHH)
VHH: B1 VHH with W109R, Q114L
notes: also called W109R, Q114L
B8: VHH5 (VHH)
VHH: B1 VHH with M96A
notes: also called M96A
B9: VHH21 (VHH)
VHH: B1 VHH with I31S, M96A, W101F
notes: also called I31S, M96A, W101F
B10: VHH6 (VHH)
VHH: B1 VHH with Q44G
notes: In the functional rows it stood as the masking moiety of construct C8; also called Q44G
B11: VHH26 (VHH)
VHH: B1 VHH with I31S, M96A, W101Y
notes: In the functional rows it stood as the masking moiety of construct C10; also called I31S, M96A, W101Y
B12: VHH7 (VHH)
VHH: B1 VHH with Q44G, R45L
notes: In the functional rows it stood as the masking moiety of construct C9; also called Q44G, R45L
B13: IL-2 V7 (ligand)
chain: APTSSSTKKTQLQLEHLLLDLQMILNGINNYKNPKLTRMLTSKFYMPKKATELKHLQCLEESLKPLEEVLNLAQSKNFHLRPRDLISNINVIVLELKGSETTFMCEYADETATIVEFLNRWITFAQSIISTLT
B14: IL-2 V2 (ligand)
chain: B13 chain with R38A, S42A, Y45A, S62A

Legend:
[1] = biological target: T2, IL-2 (UniProt P60568 21-153); assay: SPR
T2 construct: also called interleukin 2
Target sequence in this assay (P60568 21-153 limits assumed): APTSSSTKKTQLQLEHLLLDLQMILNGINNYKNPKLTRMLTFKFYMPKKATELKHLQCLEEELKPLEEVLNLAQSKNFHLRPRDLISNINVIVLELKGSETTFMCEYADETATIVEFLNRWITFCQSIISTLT

[2] = biological target: B14; assay: cell-based or functional assay
[3] = biological target: IL-2 V3 (Homo sapiens (Human), UniProt P60568 21-153); assay: cell-based or functional assay
[4] = biological target: T2, IL-2; assay: SPR, criterion of kinetic Group 2
[5] = biological target: T1, CD25 on CD25+ cells; assay: cell-based or functional assay

Binder: B1
- Kd [1]: 0.0601 nM
- koff [1]: 3.28e-05 s⁻¹
- kon [1]: 546000 M⁻¹ s⁻¹
- EC50 (pM) of intact construct C7, HEK Blue cell-based reporter assay [2]: 3390 pM
- Fold Change (Intact/Cleaved), construct C7, HEK Blue assay [2]: 112 fold
- Fold Change (Intact/Parental), construct C7, HEK Blue assay [2]: 101 fold
- Average EC50 (nM) with MMP, construct C2, pSTAT5 on CD8+ T cells of hPBMCs [3]: 0.23 nM
- Average EC50 (nM) with MMP, construct C4, pSTAT5 on CD8+ T cells of hPBMCs [3]: 0.26 nM
- Average EC50 (nM) with MMP, construct C6, pSTAT5 on CD8+ T cells of hPBMCs [3]: 0.28 nM
- Average EC50 (nM) without MMP, construct C2, pSTAT5 on CD8+ T cells of hPBMCs [3]: 137 nM
- Average EC50 (nM) without MMP, construct C4, pSTAT5 on CD8+ T cells of hPBMCs [3]: 136 nM
- Average EC50 (nM) without MMP, construct C6, pSTAT5 on CD8+ T cells of hPBMCs [3]: 470 nM
- Fold Change (Cleaved/Unmasked Control), construct C2 [3]: 4.2 fold
- Fold Change (Cleaved/Unmasked Control), construct C4 [3]: 4.7 fold
- Fold Change (Cleaved/Unmasked Control), construct C6 [3]: 5.1 fold
- Fold Masking (Uncleaved/Unmasked Control), construct C2 [3]: 2490 fold
- Fold Masking (Uncleaved/Unmasked Control), construct C4 [3]: 2470 fold
- Fold Masking (Uncleaved/Unmasked Control), construct C6 [3]: 8550 fold

Binder: B2
- Average EC50 (nM) with MMP, construct C5, pSTAT5 on CD8+ T cells of hPBMCs [3]: 0.25 nM
- Average EC50 (nM) without MMP, construct C5, pSTAT5 on CD8+ T cells of hPBMCs [3]: 411 nM
- Fold Change (Cleaved/Unmasked Control), construct C5 [3]: 4.5 fold
- Fold Masking (Uncleaved/Unmasked Control), construct C5 [3]: 7470 fold

Binder: B3
- Kd [1]: 10.9 nM
- EC50 (pM) of intact construct C12, HEK Blue cell-based reporter assay [2]: 4140 pM
- Fold Change (Intact/Cleaved), construct C12, HEK Blue assay [2]: 180 fold
- Fold Change (Intact/Parental), construct C12, HEK Blue assay [2]: 123 fold

Binder: B4
- Kd [1]: 3.99 nM
- koff [1]: 0.00237 s⁻¹
- kon [1]: 594000 M⁻¹ s⁻¹
- EC50 (pM) of intact construct C11, HEK Blue cell-based reporter assay [2]: 2860 pM
- Fold Change (Intact/Cleaved), construct C11, HEK Blue assay [2]: 118 fold
- Fold Change (Intact/Parental), construct C11, HEK Blue assay [2]: 84.9 fold
- kd relative to VHH1 kd [4]: > 6 fold of VHH1 kd

Binder: B5
- kd relative to VHH1 kd [4]: > 6 fold of VHH1 kd

Binder: B6
- Kd [1]: 12.7 nM
- koff [1]: 3.97 s⁻¹
- EC50 (pM) of intact construct C13, HEK Blue cell-based reporter assay [2]: 3130 pM
- Fold Change (Intact/Cleaved), construct C13, HEK Blue assay [2]: 158 fold
- Fold Change (Intact/Parental), construct C13, HEK Blue assay [2]: 93.1 fold
- Average EC50 (nM) with MMP, construct C1, pSTAT5 on CD8+ T cells of hPBMCs [3]: 0.051 nM
- Average EC50 (nM) without MMP, construct C1, pSTAT5 on CD8+ T cells of hPBMCs [3]: 28.1 nM
- Fold Change (Cleaved/Unmasked Control), construct C1 [3]: 0.9 fold
- Fold Masking (Uncleaved/Unmasked Control), construct C1 [3]: 511 fold

Binder: B7
- kd relative to VHH1 kd [4]: > 6 fold of VHH1 kd

Binder: B8
- kd relative to VHH1 kd [4]: > 6 fold of VHH1 kd

Binder: B9
- kd relative to VHH1 kd [4]: > 6 fold of VHH1 kd

Binder: B10
- Kd [1]: 0.00457 nM
- koff [1]: 2.18e-06 s⁻¹
- kon [1]: 476000 M⁻¹ s⁻¹
- EC50 (pM) of intact construct C8, HEK Blue cell-based reporter assay [2]: 4270 pM
- Fold Change (Intact/Cleaved), construct C8, HEK Blue assay [2]: 176 fold
- Fold Change (Intact/Parental), construct C8, HEK Blue assay [2]: 127 fold

Binder: B11
- Kd [1]: 1.35 nM
- koff [1]: 0.00427 s⁻¹
- kon [1]: 3.15e+06 M⁻¹ s⁻¹
- EC50 (pM) of intact construct C10, HEK Blue cell-based reporter assay [2]: 3970 pM
- Fold Change (Intact/Cleaved), construct C10, HEK Blue assay [2]: 202 fold
- Fold Change (Intact/Parental), construct C10, HEK Blue assay [2]: 118 fold
- kd relative to VHH1 kd [4]: > 6 fold of VHH1 kd

Binder: B12
- Kd [1]: 0.187 nM
- koff [1]: 0.000111 s⁻¹
- kon [1]: 595000 M⁻¹ s⁻¹
- EC50 (pM) of intact construct C9, HEK Blue cell-based reporter assay [2]: 6240 pM
- Fold Change (Intact/Cleaved), construct C9, HEK Blue assay [2]: 201 fold
- Fold Change (Intact/Parental), construct C9, HEK Blue assay [2]: 186 fold

Binder: B13
- EC50 (read off the curve), %pSTAT5+ of CD4+FoxP3+CD25+ cells [5]: ~3000 pM

Binder: B14
- EC50 (read off the curve), %pSTAT5+ of CD4+FoxP3+CD25+ cells [5]: ~4000 pM
